The results in this text go back to IntAct's records for PubMed 22927646.

The chains are these.
B1: Isoform 2 of Acid ceramidase (Homo sapiens), Q13510-2 (parent)
chain: MNCCIGLGEKARGSHRASYPSLSALFTEASILGFGSFAVKAQWTEDCRKSTYPPSGPTYRGAVPWYTINLDLPPYKRWHELMLDKAPVLKVIVNSLKNMINTFVPSGKIMQVVDEKLPGLLGNFPGPFEEEMKGIAAVTDIPLGEIISFNIFYELFTICTSIVAEDKKGHLIHGRNMDFGVFLGWNINNDTWVITEQLKPLTVNLDFQRNNKTVFKASSFAGYVGMLTGFKPGLFSLTLNERFSINGGYLGILEWILGKKDVMWIGFLTRTVLENSTSYEEAKNLLTKTKILAPAYFILGGNQSGEGCVITRDRKESLDVYELDAKQGRWYVVQTNYDRWKHPFFLDDRRTPAKMCLNRTSQENISFETMYDVLSTKPVLNKLTVYTTLIDVTKGQFETYLRDCPDPCIGW

Variants of B1 are the subject of this assay. To be noted: with stf1_human NR5A1, Q13285.
Chain of stf1_human NR5A1, Q13285 (Q13285 whole entry): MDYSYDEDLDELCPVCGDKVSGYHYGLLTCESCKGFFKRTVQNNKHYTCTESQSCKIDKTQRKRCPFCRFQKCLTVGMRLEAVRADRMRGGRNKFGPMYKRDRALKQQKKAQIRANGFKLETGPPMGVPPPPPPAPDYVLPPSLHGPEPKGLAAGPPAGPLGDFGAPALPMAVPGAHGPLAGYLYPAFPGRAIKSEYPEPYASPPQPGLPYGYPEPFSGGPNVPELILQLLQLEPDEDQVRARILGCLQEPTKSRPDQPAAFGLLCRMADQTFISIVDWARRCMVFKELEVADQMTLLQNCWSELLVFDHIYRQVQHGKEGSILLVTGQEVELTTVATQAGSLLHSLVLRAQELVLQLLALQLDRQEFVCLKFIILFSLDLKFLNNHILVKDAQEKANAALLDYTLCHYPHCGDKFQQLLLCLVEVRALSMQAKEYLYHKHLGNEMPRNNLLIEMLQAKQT
Regarding MNCCIGLGEKARGSHRASYPSASAAFTEASILGFGSFAVKAQWTEDCRKSTYPPSGPTYRGAVPWYTINLDLPPYKRWHELMLDKAPVLKVIVNSLKNMINTFVPSGKIMQVVDEKLPGLLGNFPGPFEEEMKGIAAVTDIPLGEIISFNIFYELFTICTSIVAEDKKGHLIHGRNMDFGVFLGWNINNDTWVITEQLKPLTVNLDFQRNNKTVFKASSFAGYVGMLTGFKPGLFSLTLNERFSINGGYLGILEWILGKKDVMWIGFLTRTVLENSTSYEEAKNLLTKTKILAPAYFILGGNQSGEGCVITRDRKESLDVYELDAKQGRWYVVQTNYDRWKHPFFLDDRRTPAKMCLNRTSQENISFETMYDVLSTKPVLNKLTVYTTLIDVTKGQFETYLRDCPDPCIGW [L22A;L25A], the “effect of a mutation on the interaction” value is recorded as “disrupting interaction strength”.
